Reference: paper PMC11408749
Each block holds one substance with its values, some of them ahead of it.

Experiments:
[1] = target: DNMT3BΔ214 (residues 215–853) V818M (human) (UniProt Q9UBC3); experiment: AUC; sedimentation velocity, 40,000 rpm, 15 h, 20 C; 20 mM Tris-HCl pH 8.0, 300 mM NaCl, 1 mM TCEP, 5% glycerol; WT DNMT3BΔ214-3L at 2.5, 5.0 and 6.25 uM, mutant complexes at 5 uM; c(s) model in SEDFIT
[2] = target: DNMT3BΔ214 (residues 215–853) V818M (human) (UniProt Q9UBC3)
[3] = target: DNMT3BΔ214 (residues 215–853) H814R (human) (UniProt Q9UBC3); experiment: AUC; sedimentation velocity, 40,000 rpm, 15 h, 20 C; 20 mM Tris-HCl pH 8.0, 300 mM NaCl, 1 mM TCEP, 5% glycerol; WT DNMT3BΔ214-3L at 2.5, 5.0 and 6.25 uM, mutant complexes at 5 uM; c(s) model in SEDFIT
[4] = target: DNMT3BΔ214 (residues 215–853) H814R (human) (UniProt Q9UBC3)
[5] = target: DNMT3BΔ214 (residues 215–853) D817G (human) (UniProt Q9UBC3); experiment: AUC; sedimentation velocity, 40,000 rpm, 15 h, 20 C; 20 mM Tris-HCl pH 8.0, 300 mM NaCl, 1 mM TCEP, 5% glycerol; WT DNMT3BΔ214-3L at 2.5, 5.0 and 6.25 uM, mutant complexes at 5 uM; c(s) model in SEDFIT
[6] = target: DNMT3BΔ214 (residues 215–853) D817G (human) (UniProt Q9UBC3)

percent of the population as hetero-tetramer (168 kDa peak, DNMT3B dimerised) [1]: 28.3%
MTase activity of the DNMT3BΔ214-3L complex (MTase-Glo, 0.2 uM complex, 36-bp dsDNA), percent of the WT complex [2]: 35.9 % of WT
Substance: DNMT3BΔ214 (residues 215–853) V818M (from UniProt Q9UBC3 215-853) (domain or fragment)

percent of the population as hetero-tetramer (168 kDa peak, DNMT3B dimerised) [3]: 1.5%
MTase activity of the DNMT3BΔ214-3L complex (MTase-Glo, 0.2 uM complex, 36-bp dsDNA), percent of the WT complex [4]: 1.09 % of WT
Substance: DNMT3BΔ214 (residues 215–853) H814R (from UniProt Q9UBC3 215-853) (domain or fragment)

percent of the population as hetero-tetramer (168 kDa peak, DNMT3B dimerised) [5]: 4.9%
MTase activity of the DNMT3BΔ214-3L complex (MTase-Glo, 0.2 uM complex, 36-bp dsDNA), percent of the WT complex [6]: 5.43 % of WT
Substance: DNMT3BΔ214 (residues 215–853) D817G (from UniProt Q9UBC3 215-853) (domain or fragment)
